According to patent US20230025280A1, “PH RESPONSIVE COMPOSITIONS, FORMULATIONS, AND METHODS OF IMAGING A TUMOR” (ONCONANO MEDICINE, INC, priority 2019, published 2023):
Several values for one entry are separate records, joined by “and”; a condition that tells them apart may be missing. Equal entries are not always repeated. Entries after “also recorded” stand apart in the source; their conditions may differ.

Assay: Phase 1 (1a/1b) pharmacokinetics: plasma concentrations after single IV dose (validated direct fluorescence reader assay), noncompartmental analysis
Type: in vivo, human
Details: for AUC0-24 hr / AUCall / AUClast / C10 m / Cmax / T1/2 / Tmax: 1.2 mg/kg single IV; for Plasma Conc: 1.20 mg/kg
Description: Phase 1 is a single-Principal Investigator, non-randomized, open-label, single-arm, cross-sectional study to evaluate the safety, PK profile, and imaging feasibility of Compound 1 in patients with solid cancers who require surgical excision. The main purpose of this study was to investigate the safety, PK, and feasibility of Compound 1 as an intra-operative optical imaging agent to detect tumors and metastatic lymph nodes in solid cancers. The study was intended to investigate the optimal dose range of Compound 1 for an adequate TBR and CNR of fluorescence obtained intraoperatively at 24 (±8) hours post dosing and with ex vivo specimens using ICG compatible cameras and imaging devices.
Phase 1 enrolled 30 patients with solid cancers (HNSCC, breast cancer, esophageal cancer, or colorectal cancer) who have a biopsy-confirmed diagnosis of respective tumor types and are scheduled to undergo surgical resection of the tumor. The study design included a standard 3+3 design for the dose-escalation portion (Phase 1a; N=18 maximum) followed by a dose-expansion portion (Phase 1b; N=15). All patients received a single I.V. dose of Compound 1, followed by routine surgery approximately 24 hours after infusion of Compound 1.
Phase 1a was a dose-finding study performed in 5 cohorts of 3 patients each. The dose levels evaluated were […], and 1.2 mg/kg, in this sequence. Inter-cohort dose escalation took place after the last patient in the previous cohort completed the Day 10 safety assessment. Safety, PK, and imaging feasibility were evaluated in both the Phase 1a and 1b portions of the study. Patient safety is assessed during the study and for up to 10 days post-dose.
Study design: Single Compound 1 IV dose was administered as a 1-5 minute IV infusion to patients in five cohorts (0.1, 0.3, 0.5, 0.8, and 1.2 mg/kg) with three patients per cohort in Phase 1a and 15 patients at a dose of 1.2 mg/kg in Phase 1b. Patient demographic information including tumor types is presented in Table 4 and 5 for Phase 1a and Table 5 for Phase 1b. Intertek Pharmaceutical Services (San Diego, Calif.) determined Compound 1 plasma concentrations using a validated direct fluorescence reader assay. Pacific BioDevelopment (Davis, Calif.) performed the PK analysis.
Sample collection: Blood samples were collected prior to infusion and at 10 minutes and 0.5, 1, 3, 8, 24, 48, 72, and 240 hours after infusion.
Analysis: Plasma concentration versus time profiles were generated for each patient. Pharmacokinetic parameters were estimated using Phoenix WinNonlin (version 8.0). According to SOP, concentrations reported as BQL were set to 0 except for the 0.5 h sample for subject #ON1102, which was set to LLOQ/2 ([…] value used in parameter calculations) and the 24 and 48 h samples.
If the coefficient of determination for the terminal slope estimation was less than 0.8, T1/2 was not reported (NR). AUC extrapolated to infinity is not reported for any data set because in all cases the % extrapolated AUC was greater than 20% and thus the AUCinf estimate would not be reliable. The concentration at 10 minutes, the first time point measured (C10m), was also reported for each patient.
The area under the plasma concentration versus time curves from dosing to the last time point with a measurable concentration (AUClast) was estimated by the linear trapezoid method. The last three or more time points were used to estimate the elimination rate constant (λz) which was used to estimate the terminal-phase half-life (T1/2) and AUC from zero to infinity (AUCINF) from the following equations: […]

## PEO90-140-b-P(DBA60-150-r-ICG0-3-r-AMA0-3) [Compound 1]
Phase 1a, mean
  AUC0-24 hr: 495 µg·h/mL
  AUCall: 842 µg·h/mL
  AUClast: 682 µg·h/mL
  C10 m: 31.7 µg/mL
  Cmax: 31.7 µg/mL
  T1/2: 36.5 h
  Tmax: 10.2 min
Phase 1a, median
  AUC0-24 hr: 563 µg·h/mL
  AUCall: 1020 µg·h/mL
  AUClast: 891 µg·h/mL
  C10 m: 33.0 µg/mL
  Cmax: 33.0 µg/mL
  T1/2: 32.5 h
  Tmax: 10.2 min
Phase 1a, 0.170 hr, individual subject
  Plasma Conc: 28.0 µg/mL and 34.1 µg/mL and 33.0 µg/mL
Phase 1a, 0.170 hr, mean
  Plasma Conc: 31.7 µg/mL
Phase 1a, 0.500 hr, individual subject
  Plasma Conc: 23.9 µg/mL and 30.5 µg/mL and 31.8 µg/mL
Phase 1a, 0.500 hr, mean
  Plasma Conc: 28.7 µg/mL
Phase 1a, 1.00 hr, individual subject
  Plasma Conc: 23.9 µg/mL and 32.1 µg/mL and 25.8 µg/mL
Phase 1a, 1.00 hr, mean
  Plasma Conc: 27.3 µg/mL
Phase 1a, 3.00 hr, individual subject
  Plasma Conc: 24.5 µg/mL and 28.4 µg/mL and 27.8 µg/mL
Phase 1a, 3.00 hr, mean
  Plasma Conc: 26.9 µg/mL
Phase 1a, 8.00 hr, individual subject
  Plasma Conc: 20.5 µg/mL and 24.4 µg/mL and 28.4 µg/mL
Phase 1a, 8.00 hr, mean
  Plasma Conc: 24.4 µg/mL
Phase 1a, 24.0 hr, individual subject
  Plasma Conc: BQL (BQL (<10 μg/mL), set = 0 for PK analysis) and 18.3 μg/mL and 15.6 μg/mL
Phase 1a, 24.0 hr, mean
  Plasma Conc: 11.3 µg/mL
Phase 1a, 48.0 hr, individual subject
  Plasma Conc: BQL (BQL (<10 μg/mL), set = 0 for PK analysis) and 15.6 μg/mL and 10.8 μg/mL
Phase 1a, 48.0 hr, mean
  Plasma Conc: 8.80 µg/mL
Phase 1a, 72.0 hr, individual subject
  Plasma Conc: BQL (BQL (<10 μg/mL), set = 0 for PK analysis)
Phase 1a, 72.0 hr, mean
  Plasma Conc: 0.00 µg/mL
Phase 1a, 240 hr, individual subject
  Plasma Conc: BQL (BQL (<10 μg/mL), set = 0 for PK analysis)
Phase 1a, 240 hr, mean
  Plasma Conc: 0.00 µg/mL
Phase 1a, 0.1-1.2 mg/kg
  Exposure in relation to dose: dose-related; also recorded: increased proportionally with dose
Phase 1b, 1.2 mg/kg
  Mean AUC0-24hr: 638 µg·h/mL
  Mean terminal-phase half-life: 46.4 h
Phase 1b, individual subject
  AUC0-24 hr: 625 µg·h/mL and 606 µg·h/mL and 502 µg·h/mL and 787 µg·h/mL and 730 µg·h/mL and 585 µg·h/mL and 740 µg·h/mL and 630 µg·h/mL and 684 µg·h/mL and 626 µg·h/mL and 693 µg·h/mL and 562 µg·h/mL and 565 µg·h/mL and 520 µg·h/mL and 721 µg·h/mL
  AUCall: 2690 µg·h/mL and 2150 µg·h/mL and 2120 µg·h/mL and 1460 µg·h/mL and 2550 µg·h/mL and 1100 µg·h/mL and 2740 µg·h/mL and 1170 µg·h/mL and 939 µg·h/mL and 1090 µg·h/mL and 3190 µg·h/mL and 1120 µg·h/mL and 747 µg·h/mL and 3350 µg·h/mL
  AUClast: 1430 µg·h/mL and 1280 µg·h/mL and 1110 µg·h/mL and 1270 µg·h/mL and 1480 µg·h/mL and 961 µg·h/mL and 1580 µg·h/mL and 1020 µg·h/mL and 684 µg·h/mL and 971 µg·h/mL and 1740 µg·h/mL and 968 µg·h/mL and 957 µg·h/mL and 520 µg·h/mL and 1780 µg·h/mL
  C10 m: 30.3 µg/mL and 31.4 µg/mL and 25.5 µg/mL and 40.0 µg/mL and 47.6 µg/mL and 32.6 µg/mL and 31.3 µg/mL and 36.5 µg/mL and 32.1 µg/mL and 35.8 µg/mL and 33.0 µg/mL and 28.0 µg/mL and 28.5 µg/mL and 27.5 µg/mL and 38.6 µg/mL
  Cmax: 32.4 µg/mL and 32.6 µg/mL and 27.6 µg/mL and 42.2 µg/mL and 47.6 µg/mL and 34.3 µg/mL and 37.7 µg/mL and 34.1 µg/mL and 36.4 µg/mL and 32.0 µg/mL and 29.9 µg/mL and 29.2 µg/mL and 38.6 µg/mL
  T1/2: 43.3 h and 61.4 h and 34.4 h and 38.4 h and 33.6 h and 46.8 h and 34.5 h and 33.4 h and 27.7 h and 83.0 h and 45.5 h and 42.6 h and 77.9 h
  Tmax: 180 min and 60 min and 30 min and 10.2 min
